Source: paper PMC12241546, “PRELP functions via multiple interactions with intrinsically weak affinity relying on ECM anchoring and remodeling” (Scientific Reports, 2025)

B1: Recombinant extracellular domain of human p75NTR (low-affinity nerve growth factor receptor) (receptor, UniProt P08138 29-189, looked up)
chain: KEACPTGLYTHSGECCKACNLGEGVAQPCGANQTVCEPCLDSVTFSDVVSATEPCKPCTECVGLQSMSAPCVEADDAVCRCAYGYYQDETTGRCEACRVCEAGSGLVFSCQDKQNTVCEECPDGTYSDEANHVDPCLPCTVCEDTERQLRECTRWADAECE
notes: also called p75NTR ectodomain; source: Sf9 cells, purified from the culture supernatant (Ni-NTA, SEC)
B5: Recombinant human full-length PRELP (proline/arginine-rich end leucine-rich repeat protein) (natural protein, UniProt P51888 21-382, looked up)
chain: QPTRRPRPGTGPGRRPRPRPRPTPSFPQPDEPAEPTDLPPPLPPGPPSIFPDCPRECYCPPDFPSALYCDSRNLRKVPVIPPRIHYLYLQNNFITELPVESFQNATGLRWINLDNNRIRKIDQRVLEKLPGLVFLYMEKNQLEEVPSALPRNLEQLRLSQNHISRIPPGVFSKLENLLLLDLQHNRLSDGVFKPDTFHGLKNLMQLNLAHNILRKMPPRVPTAIHQLYLDSNKIETIPNGYFKSFPNLAFIRLNYNKLTDRGLPKNSFNISNLLVLHLSHNRISSVPAINNRLEHLYLNNNSIEKINGTQICPNDLVAFHDFSSDLENVPHLRYLRLDGNYLKPPIPLDLMMCFRLLQSVVI
notes: human PRELP, amino acid residues 21-382 (Uniprot numbering); source: Mimic Sf9 cells, purified from the supernatant (DDDDK-tagged Protein Purification Gel, Benzonase, SEC); not shown: FLAG, C-terminal, kept

Key:
Details in all cases: both partners purified
[1] = molecular target: B5; assay: SPR; Biacore T200; PRELP proteins immobilised on CM5 by amine coupling (about 4000 RU; chPRELP about 600 RU for IGFI-R, 2000 RU for p75NTR); IGFI-R or p75NTR injected at 30 µL/min; 10 mM HEPES pH 7.5, 150 mM NaCl, 0.05% Tween-20, 15 °C; equilibrium curve fitting
[2] = molecular target: T1, Recombinant extracellular domain of human IGFI-R (insulin-like growth factor I receptor) (human, UniProt P08069 31-935); assay: as above
T1 construct: extracellular domain of human IGFI-R, amino acid residues 31-935 (Uniprot); also called IGFI-R ectodomain; source: ExpiCHO cells, purified from the culture supernatant (Ni-NTA, SEC)

[3] = molecular target: B1; assay: as above
[4] = molecular target: T2, Recombinant mature TGFβ1 dimer (transforming growth factor β1) (human, UniProt P01137 279-390); assay: SPR; Biacore T200; PRELP proteins immobilised on CM5 by amine coupling (about 400 RU; chPRELP about 600 RU); TGFβ1 or TGFβRII injected at 30 µL/min; 10 mM HEPES pH 7.5, 150 mM NaCl, 50 mM arginine-HCl, 0.05% Tween-20, 15 °C; global fitting
T2 construct: mature TGFβ1 cut from the human TGFβ1 pro-protein (expressed as amino acid residues 30-390, Uniprot, with C33S in the pro-region); source: ExpiCHO cells, transfected

[5] = molecular target: T1, Recombinant extracellular domain of …; assay: SPR; Biacore T200; PRELP proteins immobilised on CM5 by amine coupling (about 4000 RU; chPRELP about 600 RU for IGFI-R, 2000 RU for p75NTR); IGFI-R or p75NTR injected at 30 µL/min; 10 mM HEPES pH 7.5, 150 mM NaCl, 0.05% Tween-20, 15 °C; equilibrium curve fitting; remark: listed apart in the source

T1 sequence (P08069 31-935): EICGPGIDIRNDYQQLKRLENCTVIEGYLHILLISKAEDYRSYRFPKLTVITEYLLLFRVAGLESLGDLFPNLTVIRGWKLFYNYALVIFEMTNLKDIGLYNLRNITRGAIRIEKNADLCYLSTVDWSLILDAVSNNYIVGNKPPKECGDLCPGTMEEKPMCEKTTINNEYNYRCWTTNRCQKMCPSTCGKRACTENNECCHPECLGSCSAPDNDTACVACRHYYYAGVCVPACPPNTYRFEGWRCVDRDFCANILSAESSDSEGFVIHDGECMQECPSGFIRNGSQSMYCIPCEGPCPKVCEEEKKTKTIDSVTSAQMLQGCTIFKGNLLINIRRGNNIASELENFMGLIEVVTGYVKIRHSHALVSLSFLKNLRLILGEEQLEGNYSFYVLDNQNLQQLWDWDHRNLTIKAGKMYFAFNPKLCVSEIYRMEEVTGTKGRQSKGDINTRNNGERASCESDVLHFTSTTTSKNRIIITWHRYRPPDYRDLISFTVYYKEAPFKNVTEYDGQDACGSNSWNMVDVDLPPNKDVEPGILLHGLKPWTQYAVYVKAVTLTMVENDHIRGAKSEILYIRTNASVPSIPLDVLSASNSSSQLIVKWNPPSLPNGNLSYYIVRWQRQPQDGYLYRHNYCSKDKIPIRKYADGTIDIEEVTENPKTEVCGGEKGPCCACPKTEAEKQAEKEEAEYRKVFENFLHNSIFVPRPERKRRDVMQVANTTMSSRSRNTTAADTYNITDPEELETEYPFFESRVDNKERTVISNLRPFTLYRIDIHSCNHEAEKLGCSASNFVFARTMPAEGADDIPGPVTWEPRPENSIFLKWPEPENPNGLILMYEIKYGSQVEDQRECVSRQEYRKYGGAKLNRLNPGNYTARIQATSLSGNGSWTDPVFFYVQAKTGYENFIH
T2 sequence (P01137 279-390): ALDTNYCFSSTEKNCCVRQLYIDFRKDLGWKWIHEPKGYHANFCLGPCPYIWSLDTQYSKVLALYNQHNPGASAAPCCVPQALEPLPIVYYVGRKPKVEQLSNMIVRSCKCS

Binder: B1
- Kd [1]: 12.7 µM

B2: N-terminal-truncated PRELP ΔNT50 (domain or fragment)
chain: PDCPRECYCPPDFPSALYCDSRNLRKVPVIPPRIHYLYLQNNFITELPVESFQNATGLRWINLDNNRIRKIDQRVLEKLPGLVFLYMEKNQLEEVPSALPRNLEQLRLSQNHISRIPPGVFSKLENLLLLDLQHNRLSDGVFKPDTFHGLKNLMQLNLAHNILRKMPPRVPTAIHQLYLDSNKIETIPNGYFKSFPNLAFIRLNYNKLTDRGLPKNSFNISNLLVLHLSHNRISSVPAINNRLEHLYLNNNSIEKINGTQICPNDLVAFHDFSSDLENVPHLRYLRLDGNYLKPPIPLDLMMCFRLLQSVVI
modifications: secreted from insect cells (Mimic Sf9), possible N-glycans; C-terminal FLAG tag omitted. The start at 71 is 50 residues removed from the printed mature construct 21-382, just before the Cys-rich …
- Kd [2]: 6.97 µM
- Kd [3]: 11.7 µM
- Kd [4]: 1550 nM
- koff [4]: 0.169 s⁻¹
- kon [4]: 75100 M⁻¹ s⁻¹

B3: Recombinant chimeric PRELP (human PRELP 1-268 joined to Listeria monocytogenes internalin B 189-248) (other)
chain: QPTRRPRPGTGPGRRPRPRPRPTPSFPQPDEPAEPTDLPPPLPPGPPSIFPDCPRECYCPPDFPSALYCDSRNLRKVPVIPPRIHYLYLQNNFITELPVESFQNATGLRWINLDNNRIRKIDQRVLEKLPGLVFLYMEKNQLEEVPSALPRNLEQLRLSQNHISRIPPGVFSKLENLLLLDLQHNRLSDGVFKPDTFHGLKNLMQLNLAHNILRKMPPRVPTAIHQLYLDSNKIETIPNGYFKSFPNLDTLSLEDNQISDIVPLAGLTKLQNLYLSKNHISDLRALAGLKNLDVLELFSQECLNKPIN
notes: signal peptide in the construct; human PRELP, amino acid residues 1-268 (Uniprot), N-terminal half portion with LRR1-7; also called chPRELP; source: Expi293 cells, transfected, purified from the culture supernatant (FLAG-tag purification, SEC)
- Kd [2]: 15.4 µM
- Kd [3]: 14.5 µM
- Kd [4]: 1210 nM
- koff [4]: 0.362 s⁻¹
- kon [4]: 241000 M⁻¹ s⁻¹

B4: N-terminal-truncated PRELP ΔNT24 (domain or fragment)
chain: SFPQPDEPAEPTDLPPPLPPGPPSIFPDCPRECYCPPDFPSALYCDSRNLRKVPVIPPRIHYLYLQNNFITELPVESFQNATGLRWINLDNNRIRKIDQRVLEKLPGLVFLYMEKNQLEEVPSALPRNLEQLRLSQNHISRIPPGVFSKLENLLLLDLQHNRLSDGVFKPDTFHGLKNLMQLNLAHNILRKMPPRVPTAIHQLYLDSNKIETIPNGYFKSFPNLAFIRLNYNKLTDRGLPKNSFNISNLLVLHLSHNRISSVPAINNRLEHLYLNNNSIEKINGTQICPNDLVAFHDFSSDLENVPHLRYLRLDGNYLKPPIPLDLMMCFRLLQSVVI
modifications: secreted from insect cells (Mimic Sf9), possible N-glycans; C-terminal FLAG tag omitted. The start at 45 is 24 residues removed from the printed mature construct 21-382, which matches removal of the …
- Kd [2]: 3.9 µM
- Kd [3]: 11.3 µM
- Kd [4]: 512 nM
- koff [4]: 0.142 s⁻¹
- kon [4]: 277000 M⁻¹ s⁻¹

Binder: B5
- Kd [5]: 7.09 µM
